Data taken from paper PMC12518842.

Biological target: NISTmAb Primary Sample (PS 8670)
Test: FPLC; mAb sample after buffer exchange; sample buffer 15 mM acetic acid, 40 mM NaCl, pH 5 (ionic strength 50 mM); column and running conditions not told

percent dimers: < 1%
Substance: NISTmAb Primary Sample (PS 8670) (antibody)
